Measured values reported in IntAct's records for PubMed 10749989.

B1: Twist-related protein 1 (Homo sapiens), Q15672 (parent)
chain: MMQDVSSSPVSPADDSLSNSEEEPDRQQPPSGKRGGRKRRSSRRSAGGGAGPGGAAGGGVGGGDEPGSPAQGKRGKKSAGCGGGGGAGGGGGSSSGGGSPQSYEELQTQRVMANVRERQRTQSLNEAFAALRKIIPTLPSDKLSKIQTLKLAARYIDFLYQVLQSDELDSKMASCSYVAHERLSYAFSVWRMEGAWSMSASH

Columns and labels:
TCF3, P15923-1 [1] = variants of: B1; settings: with TCF3, P15923-1
TCF3, P15923-1 [2] = variants of: B1; settings: with TCF3, P15923-1; remark: listed apart in the source

Sequence of TCF3, P15923-1 (P15923 whole entry): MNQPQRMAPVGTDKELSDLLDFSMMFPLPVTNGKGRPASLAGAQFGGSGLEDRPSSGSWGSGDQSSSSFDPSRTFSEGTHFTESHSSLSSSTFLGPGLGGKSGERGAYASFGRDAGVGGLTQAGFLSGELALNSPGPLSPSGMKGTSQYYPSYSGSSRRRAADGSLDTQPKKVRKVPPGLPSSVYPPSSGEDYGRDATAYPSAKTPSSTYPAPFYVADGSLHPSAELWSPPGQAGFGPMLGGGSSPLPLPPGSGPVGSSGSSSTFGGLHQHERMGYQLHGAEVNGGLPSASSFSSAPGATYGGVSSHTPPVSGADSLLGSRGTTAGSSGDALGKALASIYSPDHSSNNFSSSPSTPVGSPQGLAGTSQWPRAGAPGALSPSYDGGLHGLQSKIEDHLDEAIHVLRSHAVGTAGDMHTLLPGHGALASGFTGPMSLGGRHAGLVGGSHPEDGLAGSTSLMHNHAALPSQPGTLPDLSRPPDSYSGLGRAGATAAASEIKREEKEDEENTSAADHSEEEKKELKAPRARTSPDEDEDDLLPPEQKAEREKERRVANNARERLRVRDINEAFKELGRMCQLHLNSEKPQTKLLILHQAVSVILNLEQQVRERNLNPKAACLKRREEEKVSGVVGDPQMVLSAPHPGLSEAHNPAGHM

Which results are given for K145E?
effect of a mutation on the interaction (TCF3, P15923-1 [1]): decreasing interaction strength; effect of a mutation on the interaction (TCF3, P15923-1 [2]): with no effect

Which “effect of a mutation on the interaction” value (TCF3, P15923-1 [1]) does the source give for L159F here?
The value was “disrupting interaction strength”.

And the “effect of a mutation on the interaction” value (TCF3, P15923-1 [2])?
Its value is “decreasing interaction strength”.

With A129P as the variant, how does the “effect of a mutation on the interaction” value (TCF3, P15923-1 [1]) read?
Its value is “disrupting interaction strength”.

And the “effect of a mutation on the interaction” value (TCF3, P15923-1 [2])?
Its value is “decreasing interaction strength”.
